Assay results taken from patent US20220356235A1 (STICHTING SANQUIN BLOEDVOORZIENING, published 2022).

B1: anti-FHR-1.3B4 (antibody, V domains shown)
VH: QVQLRQSGPGLVQPSQSLSITCTVSGFSLTNYGVYWVRQSPGKGLEWLGVIWSGGTTDYSAAFISRLSISKDNSKSQVFFKMNSLQADDTAIYYCARNFGNYAMDYWGQGTSVTVSS
VL: QIVLSQSPTILSASPGEKVTMTCRASSSVTYMHWYQQKPGSSPKPWIYATSNLASGVPARFSGSGSGTSYSLTISRVEAEDAATYYCQQRSSSNPLTFGAGTKLELK
notes: Mouse monoclonal from a hybridoma, raised against recombinant human FHR-1; also called aFHR-1 3B4
B2: human factor H, full length (other, UniProt P08603 19-1231, looked up)
chain: EDCNELPPRRNTEILTGSWSDQTYPEGTQAIYKCRPGYRSLGNVIMVCRKGEWVALNPLRKCQKRPCGHPGDTPFGTFTLTGGNVFEYGVKAVYTCNEGYQLLGEINYRECDTDGWTNDIPICEVVKCLPVTAPENGKIVSSAMEPDREYHFGQAVRFVCNSGYKIEGDEEMHCSDDGFWSKEKPKCVEISCKSPDVINGSPISQKIIYKENERFQYKCNMGYEYSERGDAVCTESGWRPLPSCEEKSCDNPYIPNGDYSPLRIKHRTGDEITYQCRNGFYPATRGNTAKCTSTGWIPAPRCTLKPCDYPDIKHGGLYHENMRRPYFPVAVGKYYSYYCDEHFETPSGSYWDHIHCTQDGWSPAVPCLRKCYFPYLENGYNQNYGRKFVQGKSIDVACHPGYALPKAQTTVTCMENGWSPTPRCIRVKTCSKSSIDIENGFISESQYTYALKEKAKYQCKLGYVTADGETSGSITCGKDGWSAQPTCIKSCDIPVFMNARTKNDFTWFKLNDTLDYECHDGYESNTGSTTGSIVCGYNGWSDLPICYERECELPKIDVHLVPDRKKDQYKVGEVLKFSCKPGFTIVGPNSVQCYHFGLSPDLPICKEQVQSCGPPPELLNGNVKEKTKEEYGHSEVVEYYCNPRFLMKGPNKIQCVDGEWTTLPVCIVEESTCGDIPELEHGWAQLSSPPYYYGDSVEFNCSESFTMIGHRSITCIHGVWTQLPQCVAIDKLKKCKSSNLIILEEHLKNKKEFDHNSNIRYRCRGKEGWIHTVCINGRWDPEVNCSMAQIQLCPPPPQIPNSHNMTTTLNYRDGEKVSVLCQENYLIQEGEEITCKDGRWQSIPLCVEKIPCSQPPQIEHGTINSSRSSQESYAHGTKLSYTCEGGFRISEENETTCYMGKWSSPPQCEGLPCKSPPEISHGVVAHMSDSYQYGEEVTYKCFEGFGIDGPAIAKCLGEKWSHPPSCIKTDCLSLPSFENAIPMGEKKDVYKAGEQVTYTCATYYKMDGASNVTCINSRWTGRPTCRDTSCVNPPTVQNAYIVSRQMSKYPSGERVRYQCRSPYEMFGDEEVMCLNGNWTEPPQCKDSTGKCGPPPPIDNGDITSFPLSVYAPASSVEYQCQNLYQLEGNKRITCRNGQWSEPPKCLHPCVISREIMENYNIALRWTAKQKLYSRTGESVEFVCKRGYRLSSRSHTLRTTCWDGKLEYPTCAKR
notes: mature; In the serum assays (C3b deposition, hemolysis) the FH is that of normal human serum; also called FH; full length FH
B3: FHR-1.14C4 (antibody, V domains shown)
VH: EVQLQQSGPELEKPGASVKISCKASGYSFTGYNMHWVKQSNGTSLEWIGKIDPYYGDTSYNQRFKGKATLTVDKSSSTAYMQLKSLTSEDSAVYYCARAFYRDYALDYWGRGTSVTVSS
VL: DIVMTQSPSSLTVTAGEKVTMSCKSSQSLFNSGNQKNYLTWYQQKPGQPPKLLIYWASTRESGVPDRFTGSGSGTDFTLTISSVQAEDLAVYYCQNDYSYPLTFGAGTKLELK
notes: Mouse monoclonal from a hybridoma, raised against recombinant human FHR-1
B4: anti-FH.07 (antibody, V domains shown)
VH: QVQLQQSGPGLVQPSQSLSITCTVSDFSLARYGVHWIRQSPGKGLEWLGVIWSGGTADYNAAFISRLNINKDNSKSQVFFKMNSLQANDTAIYYCARNFGNYAVDYWGQGTS
VL: QIVLSQSPTFLSASPGEKVTVTCRASSSVKYMHWYQQKPGASPKPWIFATSNLASGVPARFSGSGSGTSYSLTISRVEAEDAATYYCQQWSIIPPTFGNGTKLELK
B5: anti-FHR-1.11E1 (antibody, V domains shown)
VH: QVQLKQSGPGLVQPSQSLSITCTVSGFSLTNYGVHWVRQPPGKGLEWLGVIWSGGNTDYNAAFISRLSISKDNSKSQVFFKMNSLQADDTAIYYCAKNGDYGYTMDYWGQGTSVTVSS
VL: DVVMTQTPLSLPVSLGDQASISCRSSQSLVHSNGNTYLHWYLQKPGQSPKLLIYKLSNRFSGVPDRFSGSGSGTDFTLKISRVEAEDLGVYFCSQSTHVPFTFGSGTKLEIK
notes: as for B3

Legend:
[1] = molecular target: T1, recombinant human FH fragment CCP 19-20 (human, UniProt P08603 1107-1231); assay: competition ELISA: mAb captured on RM-19 coated plate, FH-bt mixed with unlabelled CCP 19-20
T1 construct: domain: CCP 19-20
T1 sequence (looked up): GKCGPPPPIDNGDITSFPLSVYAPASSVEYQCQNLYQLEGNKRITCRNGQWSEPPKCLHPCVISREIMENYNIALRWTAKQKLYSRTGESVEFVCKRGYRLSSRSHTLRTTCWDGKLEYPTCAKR
Description: (§1) The location of the epitope of anti-FHR-1 mAbs was determined using recombinant human FH fragments composed of multiple CCP domains (15-18, 15-19, 18-20 or 19-20). In short, anti-FHR-1 mAbs were captured on a RM-19 coated microtiterplate to assure optimal binding conformation. Next, biotinylated FH, mixed with a 100-fold higher concentration of the indicated unlabeled recombinant FH-fragments, was incubated on the plate for 1 hour. Binding of biotinylated FH was determined by incubation with 0.01% (v/v) streptavidin conjugated with poly-HRP, in HPE for 30 min. The ELISA was further developed as described above. To determine whether the anti-FHR-1 mAbs competed with anti-FH.07 for the binding of FH, a similar set-up was used. In short, mAbs were directly coated to the plate and binding of biotinylated FH (FH-bt) in the absence or presence of a 10-fold higher concentration of indicated mAbs was assessed by ELISA as described above.

[2] = molecular target: B2; assay: cell-based or functional assay
[3] = molecular target: T2, recombinant human FH fragment CCP 18-20 (human, UniProt P08603 1046-1231); assay: SPR (Biacore T200), mAb captured on ProtA or ProtG chip, FH CCP18-20 flowed over, 1:1 model
T2 construct: domain: CCP 18-20; also called fragment of FH comprised of domain 18-20
T2 sequence (looked up): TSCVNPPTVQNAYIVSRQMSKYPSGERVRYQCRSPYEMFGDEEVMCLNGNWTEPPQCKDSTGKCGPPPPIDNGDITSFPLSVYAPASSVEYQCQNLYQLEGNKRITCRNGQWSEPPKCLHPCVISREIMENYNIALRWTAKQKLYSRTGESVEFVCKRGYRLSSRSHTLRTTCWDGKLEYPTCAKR
Description: (§2) Surface plasmon resonance (SPR) experiments were performed using a BiaCore T200 (GE Healthcare) and CM5 sensor chips (GE Healthcare) in accordance with the manufacturer's instructions. In short, to determine its affinity, anti-FH.07, anti-FHR-1 3B4 or anti-FHR-1 8E4 were captured onto a ProtA or ProtG coupled chip and either full length FH or a fragment of FH comprising domain 18-20 was flown over the captured moAB at decreasing concentrations.

[4] = molecular target: B2; assay: SPR, mAb captured on a ProtA or ProtG chip, full length FH flowed over, 1:1 binding model
Description: as §2

[5] = molecular target: B2; assay: SPR (Biacore T200), mAb captured on ProtA or ProtG chip, full length FH flowed over, 1:1 model
Description: as §2

[6] = molecular target: T3, C3b (UniProt P01024 23-667; P01024 749-1663, limits assumed); assay: SPR (Biacore T200), C3b amine-coupled to CM5 chip, FH alone injected (10-0.01953 µM), 37 °C, equilibrium analysis; FH alone, no Fab′
T3 construct: C3b has two chains (beta and alpha') derived from C3; also called purified C3b (Complement Technologies)
Description: Binding of FH to C3b in the presence of the anti-FH moAbs was determined by surface plasmon resonance using a Biacore T200 instrument (GE Healthcare, Little Chalfont, UK). Purified C3b (Complement Technologies) was immobilized onto a flow cell of a CM5 Biacore Sensor Chip (GE Healthcare) using standard amine coupling. The remaining flow cell was used as reference surface and prepared by performing a coupling reaction without the addition of any protein. A response of 2000 response units (RUs) was obtained after coupling with C3b. SPR experiments were performed at 37° C. using a flow rate of 10 μl/min and in phosphate buffered saline pH 7.4 (PBS, Orphi Farma) supplemented with 0.01% (w/v) Tween-20 (Merck) (PBS-T).
To determine the effect of the antibodies without interference of possible cross-linking via the moAb, recombinantly produced Fab′ fragments of the moAbs were used. Fab′ fragments were mixed with plasma purified FH (pdFH). […] Each Fab′ fragment was also injected without addition of FH to determine any interactions of the Fab′ fragments with the surfaces. The pdFH injection was followed by a dissociation of 60 seconds and surface was regenerated between each cycle by a single injection of 1 M NaCl (Merck).
Data was analyzed using Scrubber 2 (Biologic Software) affinities were determined by equilibrium analysis.

[7] = molecular target: T4, recombinant human FH fragment CCP 15-18 (human, UniProt P08603 868-1104); assay: competition ELISA: mAb captured on RM-19 coated plate, FH-bt mixed with 100-fold excess of unlabelled CCP 15-18
T4 construct: domain: CCP 15-18
T4 sequence (looked up): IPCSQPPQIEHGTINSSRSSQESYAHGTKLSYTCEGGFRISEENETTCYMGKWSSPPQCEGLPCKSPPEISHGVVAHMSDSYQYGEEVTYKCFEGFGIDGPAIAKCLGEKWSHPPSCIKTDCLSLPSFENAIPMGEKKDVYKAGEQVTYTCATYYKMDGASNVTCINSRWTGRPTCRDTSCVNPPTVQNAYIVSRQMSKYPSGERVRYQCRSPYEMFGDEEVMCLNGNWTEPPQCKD
Description: as §1

[8] = molecular target: T2, recombinant human FH fragment CCP 18-20; assay: competition ELISA: mAb captured on RM-19 coated plate, FH-bt mixed with 100-fold excess of unlabelled CCP 18-20
Description: as §1

[9] = molecular target: T5, recombinant human FH fragment CCP 15-19 (human, UniProt P08603 868-1165); assay: competition ELISA: mAb captured on RM-19 coated plate, FH-bt mixed with 100-fold excess of unlabelled CCP 15-19
T5 construct: domain: CCP 15-19
T5 sequence (looked up): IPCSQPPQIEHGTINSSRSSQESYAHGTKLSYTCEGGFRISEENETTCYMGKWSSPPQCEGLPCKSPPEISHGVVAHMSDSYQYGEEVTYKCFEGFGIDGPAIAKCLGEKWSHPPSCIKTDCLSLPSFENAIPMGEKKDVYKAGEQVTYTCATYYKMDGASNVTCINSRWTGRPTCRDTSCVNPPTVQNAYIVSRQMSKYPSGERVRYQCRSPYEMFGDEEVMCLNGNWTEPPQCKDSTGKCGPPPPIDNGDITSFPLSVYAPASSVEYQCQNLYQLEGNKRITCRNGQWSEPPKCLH
Description: as §1

[10] = molecular target: B2; assay: competition ELISA: mAb captured on RM-19 coated plate, FH-bt mixed with excess unlabelled full length FH; % of FH-bt binding without competitor
Description: as §1

T3 sequence (P01024 23-667 limits assumed, chain 1 of 2): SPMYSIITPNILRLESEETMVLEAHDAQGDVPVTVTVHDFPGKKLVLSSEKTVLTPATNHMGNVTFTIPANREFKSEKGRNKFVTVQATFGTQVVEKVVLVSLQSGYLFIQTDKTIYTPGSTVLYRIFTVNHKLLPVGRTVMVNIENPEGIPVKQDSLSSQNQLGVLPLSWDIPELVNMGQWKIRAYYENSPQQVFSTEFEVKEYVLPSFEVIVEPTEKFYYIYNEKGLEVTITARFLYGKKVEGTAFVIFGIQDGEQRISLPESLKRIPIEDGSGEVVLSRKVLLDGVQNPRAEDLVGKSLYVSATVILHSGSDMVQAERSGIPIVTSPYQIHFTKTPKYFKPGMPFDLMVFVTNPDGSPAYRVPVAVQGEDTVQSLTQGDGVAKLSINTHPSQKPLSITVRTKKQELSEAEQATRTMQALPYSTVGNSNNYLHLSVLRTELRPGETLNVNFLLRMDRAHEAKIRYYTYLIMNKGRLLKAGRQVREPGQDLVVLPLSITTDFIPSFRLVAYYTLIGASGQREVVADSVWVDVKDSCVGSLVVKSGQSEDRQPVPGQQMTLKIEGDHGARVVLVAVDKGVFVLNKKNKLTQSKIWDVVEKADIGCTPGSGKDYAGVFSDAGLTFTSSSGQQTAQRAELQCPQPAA
T3 sequence (P01024 749-1663 limits assumed, chain 2 of 2): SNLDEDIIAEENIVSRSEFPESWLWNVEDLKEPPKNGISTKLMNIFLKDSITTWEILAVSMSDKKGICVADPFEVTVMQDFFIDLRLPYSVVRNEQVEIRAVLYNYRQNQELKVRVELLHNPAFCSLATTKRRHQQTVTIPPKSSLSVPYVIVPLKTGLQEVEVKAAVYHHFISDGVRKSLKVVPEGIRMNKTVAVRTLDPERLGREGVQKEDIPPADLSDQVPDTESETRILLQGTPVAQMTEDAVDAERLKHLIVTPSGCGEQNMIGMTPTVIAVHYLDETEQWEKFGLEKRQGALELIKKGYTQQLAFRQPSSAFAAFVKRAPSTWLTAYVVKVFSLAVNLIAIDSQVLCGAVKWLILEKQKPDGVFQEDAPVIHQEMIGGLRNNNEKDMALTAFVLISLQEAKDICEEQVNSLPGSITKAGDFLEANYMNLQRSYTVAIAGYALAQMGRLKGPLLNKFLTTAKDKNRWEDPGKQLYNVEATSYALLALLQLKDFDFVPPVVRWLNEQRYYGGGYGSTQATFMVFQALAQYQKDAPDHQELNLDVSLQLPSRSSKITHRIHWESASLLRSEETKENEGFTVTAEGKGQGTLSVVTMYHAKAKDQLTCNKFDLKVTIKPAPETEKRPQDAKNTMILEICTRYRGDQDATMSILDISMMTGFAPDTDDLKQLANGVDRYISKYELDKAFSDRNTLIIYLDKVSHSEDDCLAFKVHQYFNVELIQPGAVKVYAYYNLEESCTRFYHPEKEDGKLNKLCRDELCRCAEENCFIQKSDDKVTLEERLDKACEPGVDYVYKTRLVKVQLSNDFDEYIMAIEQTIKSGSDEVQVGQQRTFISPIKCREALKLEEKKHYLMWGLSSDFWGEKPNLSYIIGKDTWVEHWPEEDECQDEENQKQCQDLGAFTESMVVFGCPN

Row | Binder | binding result [1] | IC50 (nM), Hemolytic assay [2] | IC50 (nM), LPS C3b dep. assay [2] | Kd [3] | koff [3] | kon [3] | Kd [4] | Kd [5] | koff [5] | kon [5] | Kd [6] | binding result [7] | binding result [8] | binding result [9] | binding result [10]
1 | B1 | no binding | 94 nM | 38.4 nM | 0.00544 nM | 1.27e-05 s⁻¹ | 2.39e+06 M⁻¹ s⁻¹ | 5.77 nM | 5.8 nM | 9.1e-05 s⁻¹ | 15800 M⁻¹ s⁻¹ |  |  |  |  | 
2 | B2 |  |  |  |  |  |  |  |  |  |  | 6000 nM |  |  |  | 
3 | B3 | no binding |  |  |  |  |  |  |  |  |  |  | binds | binds | binds | binds
4 | B4 | no binding | 153 nM | 38.8 nM | 0.32 nM | 0.00027 s⁻¹ | 833000 M⁻¹ s⁻¹ |  | 29.7 nM | 0.000181 s⁻¹ | 6090 M⁻¹ s⁻¹ |  |  |  |  | 
5 | B5 | no binding |  | 25 nM |  |  |  |  |  |  |  |  |  |  |  | 
